doi:10.1101/2020.10.19.344200

Target: S. scrofa RNA polymerase II (transcribing, phosphorylated, on a DNA-RNA scaffold) (S. scrofa)
Experiment: cryo-EM structure

Substance: human U1 small nuclear ribonucleoprotein particle (from UniProt P08621;P09012;P09234) (complex)
- percent of Pol II particles with density for U1 snRNP: 17.5%
